As usually defined, the Cmax is the highest concentration seen after dosing. By MRT is commonly meant the average time that molecules of a dose stay in the body.

The nature of this series: Pharmacokinetic studies, single s.c. dose in rats, plasma concentration by growth hormone ELISA. It counts as in vivo. Conditions: single-dose 1 mg/kg bolus s.c., normal male Sprague-Dawley rats; average. The method, then:
Pharmacokinetic properties of PEG-modified growth hormone compounds were compared to each other and to nonPEGylated growth hormone in male Sprague-Dawley rats (261-425 g) obtained from Charles River Laboratories. Catheters were surgically installed into the carotid artery for blood collection. Following successful catheter installation, animals were assigned to treatment groups (three to six per group) prior to dosing. Animals were dosed subcutaneously with 1 mg/kg of compound in a dose volume of 0.41-0.55 ml/kg. Blood samples were collected at various time points via the indwelling catheter and into EDTA-coated microfuge tubes. Plasma was collected after centrifugation, and stored at −80° C. until analysis. Compound concentrations were measured using antibody sandwich growth hormone ELISA kits from either BioSource International (Camarillo, Calif.) or Diagnostic Systems Laboratories (Webster, Tex.). Concentrations were calculated using standards corresponding to the analog that was dosed. Pharmacokinetic parameters were estimated using the modeling program WinNonlin (Pharsight, version 4.1). Noncompartmental analysis with linear-up/log-down trapezoidal integration was used, and concentration data was uniformly weighted.
Plasma concentrations were obtained at regular intervals following a single subcutaneous dose in rats. […] Plasma samples were taken over the regular time intervals and assayed for injected compound as described. […] Concentration vs time curves were evaluated by noncompartmental analysis (Pharsight, version 4.1). Values shown are averages (+/− standard deviation). Cmax: maximum concentration; terminal t1/2: terminal half-life; AUC0→inf: area under the concentration-time curve extrapolated to infinity; MRT: mean residence time; Cl/f: apparent total, plasma clearance; Vz/f: apparent volume of distribution during terminal phase.
(An ELISA detects its analyte on a solid surface through an enzyme-linked reagent.)
In the case of “30KPEG-pAF35(his)hGH: "hGH polypeptides comprising p-acetyl-phenylalanine covalently-linked to 30 kDa PEG at positions 35 and 92" (position 35, His-tagged)”, the “AUC 0->inf” value was 39,918 ng × hr/ml, the Cl/f was 0.583 mL/min/kg, the Cmax is on record as 1,885 ng/ml and the MRT stood at 19.16 h. Besides, the “Terminal t1/2” value was determined as 4.85 h.

Turning to “30KPEG-pAF131(his)hGH: "His-tagged hGH polypeptide comprising non-natural amino acid p-acetyl-phenylalanine covalently linked to 30 kDa PEG at each of six different positions"”, the “AUC 0->inf” value is 6,978 ng × hr/ml, the Cl/f amounted to 2.68 mL/min/kg, the Cmax turned out to be 497 ng/mL and the mean residence time (MRT) is recorded as 14.28 h. For the same substance, the “Terminal t1/2” value was found to be 4.41 h.

As to “30KPEG-pAF134(his)hGH: "His-tagged hGH polypeptide comprising non-natural amino acid p-acetyl-phenylalanine covalently linked to 30 kDa PEG at each of six different positions"”, the “AUC 0->inf” value is recorded as 7,304 ng × hr/ml, the Cl/f was 2.52 mL/min/kg, the Cmax is 566 ng/mL and the MRT is given as 12.15 h. Moreover, the “Terminal t1/2” value came to 4.36 h.

As to “30KPEG-pAF143(his)hGH: "His-tagged hGH polypeptide comprising non-natural amino acid p-acetyl-phenylalanine covalently linked to 30 kDa PEG at each of six different positions"”, the “AUC 0->inf” value is 17,494 ng × hr/ml, the Cl/f is 0.983 mL/min/kg, the highest concentration (Cmax) is 803 ng/mL and the MRT is recorded as 18.83 h. The “Terminal t1/2” value was determined as 6.02 h.

“30KPEG-pAF145(his)hGH: "His-tagged hGH polypeptide comprising non-natural amino acid p-acetyl-phenylalanine covalently linked to 30 kDa PEG at each of six different positions"”: the “AUC 0->inf” value is listed as 13,162 ng × hr/ml, the Cl/f amounted to 1.47 mL/min/kg, the Cmax is 634 ng/mL and the mean residence time (MRT) was 17.82 h. Moreover, the “Terminal t1/2” value was determined as 5.87 h.

The record behind these values is patent US8367612B2, “Compositions containing, methods involving, and uses of non-natural amino acids and polypeptides” (Ambrx, Inc., priority 2004, dated 2013).
